Source: US20100313281A1 (published 2010)

Biological target: the molecule itself
Experiment: western blot of BHK media, reducing (29 kDa) against non-reducing (49 kDa) conditions
Method: Following selection for stable cell transfectants, media isolated from pools was analyzed by western blot under reducing and non-reducing conditions using a Ztgfβ-9 antibody or an anti-EE epitope tag antibody. […] Under non-reducing conditions, Ztgfβ-9 protein migrated as at 49 kDa species. […] C-terminal EE tagged human Ztgfβ-9 expressed in BHK cells was also anti-EE affinity purified and its N-terminal sequence determined.

B1: Human Ztgfβ-9 protein (ligand)
chain: AGAPRAGRRPARPRGCADRPEELLEQLYGRLAAGVLSAFHHTLQLGPREQARNASCPAGGRPADRRFRPPTNLRSVSPWAYRISYDPARYPRYLPEAYCLCRGCLTGLFGEEDVRFRSAPVYMPTVVLRRTPACAGGRSVYTEAYVTIPVGCTCVPEPEKDADSINSSIDKQGAKLLLGPNDAPAGP
notes: also called transforming growth factor beta-9
  binding result: binds
